The text below walks through data of patent KR20210028556A (dated 2021).

The target in assay [1] is T1, 재조합 마우스 ROR1 단백질 (Acrobiosystems, RO1-M5221) (mouse, UniProt Q9Z139 30-406).
T1 construct: extracellular domain; bought protein; also called 마우스 ROR1 항원
Description: ELISA, IgG on coated recombinant mouse ROR1. (In general: An ELISA detects its analyte on a solid surface through an enzyme-linked reagent.)

The target of assay [2] is T2, 마우스 ROR1 (세포 표면 발현, CHO-mouse ROR1) (mouse, UniProt Q9Z139 30-937).
T2 construct: whole, on cells; transiently overexpressed on CHO cells
T2 sequence (Q9Z139 30-937): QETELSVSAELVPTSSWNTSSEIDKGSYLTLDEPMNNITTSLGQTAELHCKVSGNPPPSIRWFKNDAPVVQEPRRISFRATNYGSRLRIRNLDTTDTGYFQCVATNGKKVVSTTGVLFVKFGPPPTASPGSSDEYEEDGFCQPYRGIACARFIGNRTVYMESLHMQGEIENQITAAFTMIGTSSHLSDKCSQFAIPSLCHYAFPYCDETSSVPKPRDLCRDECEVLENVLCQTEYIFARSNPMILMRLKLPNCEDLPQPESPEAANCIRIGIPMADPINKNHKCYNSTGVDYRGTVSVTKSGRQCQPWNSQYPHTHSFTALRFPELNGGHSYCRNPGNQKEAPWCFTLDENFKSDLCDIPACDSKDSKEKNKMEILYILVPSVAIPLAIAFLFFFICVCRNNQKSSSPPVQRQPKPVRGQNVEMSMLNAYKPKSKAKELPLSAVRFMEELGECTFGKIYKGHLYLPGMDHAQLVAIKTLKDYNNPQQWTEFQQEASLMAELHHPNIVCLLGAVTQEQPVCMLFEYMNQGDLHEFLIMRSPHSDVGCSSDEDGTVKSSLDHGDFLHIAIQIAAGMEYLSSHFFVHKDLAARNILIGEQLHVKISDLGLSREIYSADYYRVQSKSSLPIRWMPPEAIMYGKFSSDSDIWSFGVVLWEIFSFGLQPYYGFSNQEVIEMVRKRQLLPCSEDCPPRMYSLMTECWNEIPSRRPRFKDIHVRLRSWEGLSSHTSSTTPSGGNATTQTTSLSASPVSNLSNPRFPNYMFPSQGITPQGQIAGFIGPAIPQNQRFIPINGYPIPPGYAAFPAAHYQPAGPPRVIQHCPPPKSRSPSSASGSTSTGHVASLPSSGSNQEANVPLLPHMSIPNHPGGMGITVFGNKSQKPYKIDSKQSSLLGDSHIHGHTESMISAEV
Description: flow cytometry, CHO-mouse ROR1 cells. A general note: Flow cytometry measures light scatter and fluorescence of single cells or particles in a stream.

The target of assay [3] is T3, 인간 ROR1 항원 (ELISA 코팅: 실시예 1의 ROR1-Fc 또는 재조합 인간 ROR1-His) (human, UniProt Q01973 30-406).
T3 construct: extracellular domain; tag therefore open
T3 sequence (Q01973 30-406): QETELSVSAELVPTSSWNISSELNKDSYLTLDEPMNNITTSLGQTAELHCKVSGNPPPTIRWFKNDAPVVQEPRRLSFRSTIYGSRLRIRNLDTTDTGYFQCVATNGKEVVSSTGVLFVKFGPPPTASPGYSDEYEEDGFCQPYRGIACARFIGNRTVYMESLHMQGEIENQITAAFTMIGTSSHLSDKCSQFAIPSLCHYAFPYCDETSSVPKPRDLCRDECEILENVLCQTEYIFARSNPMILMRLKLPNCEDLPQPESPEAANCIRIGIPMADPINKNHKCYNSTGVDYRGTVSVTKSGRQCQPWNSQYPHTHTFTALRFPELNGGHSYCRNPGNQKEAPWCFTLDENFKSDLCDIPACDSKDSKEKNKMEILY
In words: ELISA, IgG on coated human ROR1 protein.

The target in a further assay is T4, 인간 ROR1 (세포 표면 발현) (human, UniProt Q01973 30-937).
T4 construct: whole, on cells; endogenous on JeKo-1, Mino and other human cancer lines; overexpressed on CHO and MC38 cells; also called hROR1; CHO-human ROR1
T4 sequence (Q01973 30-937): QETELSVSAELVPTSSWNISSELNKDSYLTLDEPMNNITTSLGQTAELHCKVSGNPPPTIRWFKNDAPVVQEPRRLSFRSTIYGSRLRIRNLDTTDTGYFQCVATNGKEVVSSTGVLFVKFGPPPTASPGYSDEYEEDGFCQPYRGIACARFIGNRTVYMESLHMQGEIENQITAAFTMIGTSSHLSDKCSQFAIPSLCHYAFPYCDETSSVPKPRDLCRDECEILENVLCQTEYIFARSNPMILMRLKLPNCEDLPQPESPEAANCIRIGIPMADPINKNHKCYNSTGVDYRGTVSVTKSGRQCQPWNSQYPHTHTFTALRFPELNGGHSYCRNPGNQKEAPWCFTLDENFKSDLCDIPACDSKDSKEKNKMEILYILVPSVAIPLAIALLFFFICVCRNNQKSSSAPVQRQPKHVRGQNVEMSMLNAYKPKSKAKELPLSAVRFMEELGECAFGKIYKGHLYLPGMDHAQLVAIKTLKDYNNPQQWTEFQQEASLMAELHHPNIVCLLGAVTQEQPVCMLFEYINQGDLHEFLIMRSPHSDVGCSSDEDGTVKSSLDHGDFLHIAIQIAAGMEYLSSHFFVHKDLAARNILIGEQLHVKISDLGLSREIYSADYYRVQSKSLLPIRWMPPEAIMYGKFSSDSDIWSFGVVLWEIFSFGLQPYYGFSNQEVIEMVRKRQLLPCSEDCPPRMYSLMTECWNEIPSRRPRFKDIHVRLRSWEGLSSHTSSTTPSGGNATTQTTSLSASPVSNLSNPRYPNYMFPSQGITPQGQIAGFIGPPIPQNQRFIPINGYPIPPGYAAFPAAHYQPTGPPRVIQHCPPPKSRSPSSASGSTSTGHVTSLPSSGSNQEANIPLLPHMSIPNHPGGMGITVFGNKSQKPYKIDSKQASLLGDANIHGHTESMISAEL
In words: flow cytometry, JeKo-1 and Mino cells.

In assay [4] the target is T5, 인간 ROR2 (세포 표면 발현, CHO-human ROR2) (human, UniProt Q01974 34-943).
T5 construct: whole, on cells; negative control, transiently overexpressed on CHO cells
T5 sequence (Q01974 34-943): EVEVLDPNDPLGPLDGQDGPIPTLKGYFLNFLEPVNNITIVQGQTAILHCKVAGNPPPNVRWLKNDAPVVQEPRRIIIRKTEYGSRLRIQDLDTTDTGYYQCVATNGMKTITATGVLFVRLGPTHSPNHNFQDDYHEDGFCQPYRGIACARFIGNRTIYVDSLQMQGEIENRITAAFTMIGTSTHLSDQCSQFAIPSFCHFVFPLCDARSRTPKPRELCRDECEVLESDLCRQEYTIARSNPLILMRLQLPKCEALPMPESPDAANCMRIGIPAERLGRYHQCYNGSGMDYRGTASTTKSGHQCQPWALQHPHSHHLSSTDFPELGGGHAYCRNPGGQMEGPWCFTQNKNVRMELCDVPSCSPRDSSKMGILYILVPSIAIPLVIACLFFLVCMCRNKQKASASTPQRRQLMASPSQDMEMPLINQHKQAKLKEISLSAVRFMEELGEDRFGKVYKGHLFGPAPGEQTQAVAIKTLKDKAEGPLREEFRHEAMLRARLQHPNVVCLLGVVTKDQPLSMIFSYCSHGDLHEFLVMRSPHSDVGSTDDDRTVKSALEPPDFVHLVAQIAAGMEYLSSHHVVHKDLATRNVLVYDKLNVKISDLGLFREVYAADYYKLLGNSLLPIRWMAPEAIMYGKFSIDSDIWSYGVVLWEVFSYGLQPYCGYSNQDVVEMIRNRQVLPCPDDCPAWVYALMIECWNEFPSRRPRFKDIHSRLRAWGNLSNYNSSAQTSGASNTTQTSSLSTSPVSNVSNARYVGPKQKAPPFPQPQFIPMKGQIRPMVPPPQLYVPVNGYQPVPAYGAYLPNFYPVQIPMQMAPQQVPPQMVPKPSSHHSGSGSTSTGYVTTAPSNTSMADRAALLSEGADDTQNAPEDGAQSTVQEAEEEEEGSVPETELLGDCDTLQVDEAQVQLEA
Description: flow cytometry, CHO-human ROR2 cells.

Assay [5] has as its target T6, 재조합 인간 ROR1-His (Sino Biological, 13968-H08H) (human, UniProt Q01973 30-403).
T6 construct: bought protein
Description: BLI (Octet), ROR1-His on the sensor, 1:1 fit. In general terms: BLI is a label-free optical method that tracks binding on a fibre tip over time.

T1 sequence (Q9Z139 30-406): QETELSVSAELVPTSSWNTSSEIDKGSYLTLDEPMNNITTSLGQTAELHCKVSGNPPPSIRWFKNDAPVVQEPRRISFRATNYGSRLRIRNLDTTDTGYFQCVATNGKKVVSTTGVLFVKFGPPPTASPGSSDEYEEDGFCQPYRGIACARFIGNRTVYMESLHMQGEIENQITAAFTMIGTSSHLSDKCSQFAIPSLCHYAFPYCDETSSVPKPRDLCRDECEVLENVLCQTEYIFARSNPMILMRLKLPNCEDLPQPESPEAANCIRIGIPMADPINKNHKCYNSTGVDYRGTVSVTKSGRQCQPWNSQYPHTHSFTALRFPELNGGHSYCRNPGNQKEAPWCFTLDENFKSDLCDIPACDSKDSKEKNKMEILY
T6 sequence (Q01973 30-403 limits assumed): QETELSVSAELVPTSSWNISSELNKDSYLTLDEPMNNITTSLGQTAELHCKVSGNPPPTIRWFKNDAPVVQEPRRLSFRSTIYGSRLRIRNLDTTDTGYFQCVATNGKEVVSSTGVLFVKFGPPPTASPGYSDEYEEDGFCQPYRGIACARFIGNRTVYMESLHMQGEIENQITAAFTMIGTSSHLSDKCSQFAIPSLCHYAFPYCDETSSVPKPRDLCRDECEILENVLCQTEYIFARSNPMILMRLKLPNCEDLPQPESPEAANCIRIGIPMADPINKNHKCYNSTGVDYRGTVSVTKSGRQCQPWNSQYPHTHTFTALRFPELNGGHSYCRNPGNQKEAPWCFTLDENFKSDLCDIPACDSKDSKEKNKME

B1: A2F2 (antibody, human IgG1, lambda, V domains shown)
VH: EVQLLESGGGLVQPGGSLRLSCAASGFTFSDYYMSWVRQAPGKGLEWVSSISPDGSNTYYADSVKGRFTISRDNSKNTLYLQMNSLRAEDTAVYYCAKNLRAFDYWGQGTLVTVSS
VL: QSVLTQPPPASGTPGQRVTISCSGSSSNIGSNTVYWYQQLPGTAPKLLIYANSQRPSGVPDRFSGSKSGTSASLAISGLRSEDEADYYCGSWDYSLSGYVFGGGTKLTVLG
notes: full IgG, human IgG1 heavy and lambda light constant regions; expressed in CHO-S; also called 항-ROR1 IgG 항체 A2F2
For B1, the binding result is given as “binds” in assay [1]; “binds” in assay [2]; “binds” in assay [3]; “binds” in the assay with 인간 ROR1 (세포 표면 발현); “no binding” in assay [4]; “binds” in assay [5].

B2: CC9 (antibody, human IgG1, lambda, V domains shown)
VH: EVQLLESGGGLVQPGGSLRLSCAASGFTFSSYDMSWVRQAPGKGLEWVSGISHGSGNKYYADSVKGRFTISRDNSKNTLYLQMNSLRAEDTAVYYCAKRLSLRRRPSYYSDNAMDVWGQGTLVTVSS
VL: QSVLTQPPSASGTPGQRVTISCTGSSSNIGNNAVNWYQQLPGTAPKLLIYYDSNRPSGVPDRFSGSKSGTSASLAISGLRSEDEADYYCGAWDDSLSGYVFGGGTKLTVLG
notes: full IgG, human IgG1 heavy and lambda light constant regions; expressed in CHO-S; also called 항-ROR1 IgG 항체 CC9
B2: the binding result in assay [1] is “binds”; in assay [2] it was “binds”; in assay [3], “binds”; in the assay with 인간 ROR1 (세포 표면 발현), “binds”; in assay [4] it was “no binding”; in assay [5] it was “binds”.

B3: BA6 (antibody, human IgG1, lambda, V domains shown)
VH: EVQLLESGGGLVQPGGSLRLSCAASGFTFSNYDMSWVRQAPGKGLEWVSAIYHSGSSKYYADSVKGRFTISRDNSKNTLYLQMNSLRAEDTAVYYCARGGNGAWDTGFDYWGQGTLVTVSS
VL: QSVLTQPPSASGTPGQRVTISCSGSSSNIGSNDVSWYQQLPGTAPKLLIYYDNNRPSGVPDRFSGSKSGTSASLAISGLRSEDEADYYCGAWDDSLSGYVFGGGTKLTVLG
notes: full IgG, human IgG1 heavy and lambda light constant regions; expressed in CHO-S; also called 항-ROR1 IgG 항체 BA6
As for B3, the binding result in assay [1] is recorded as “binds”; in assay [2], “binds”; in assay [3], “binds”; with 인간 ROR1 (세포 표면 발현) it was “binds”; in assay [4], “no binding”; in assay [5], “binds”.

B4: AB4 (antibody, human IgG1, lambda, V domains shown)
VH: EVQLLESGGGLVQPGGSLRLSCAASGFTFSSYDMSWVRQAPGKGLEWVSWISPDSGSIYYADSVKGRFTISRDNSKNTLYLQMNSLRAEDTAVYYCARPTGRFDYWGQGTLVTVSS
VL: QSVLTQPPSASGTPGQRVTISCSGSSSNIGNNNVNWYQQLPGTAPKLLIYYDNKRPSGVPDRFSGSKSGTSASLAISGLRSEDEADYYCGTWDASLSGYVFGGGTKLTVLG
notes: full IgG, human IgG1 heavy and lambda light constant regions; expressed in CHO-S; also called 항-ROR1 IgG 항체 AB4
Consider B4, for which the binding result is listed as “binds” in assay [1], “binds” in assay [2] and “no binding” in assay [4].

B5: DG6 (antibody, human IgG1, lambda, V domains shown)
VH: EVQLLESGGGLVQPGGSLRLSCAASGFTFSDYDMSWVRQAPGKGLEWVSVISPDGGSIYYADSVKGRFTISRDNSKNTLYLQMNSLRAEDTAVYYCARDVVECNMNPCSYDNAMDVWGQGTLVTVSS
VL: QSVLTQPPSASGTPGQRVTISCSGSSSNIGSNYVSWYQQLPGTAPKLLIYDDSHRPSGVPDRFSGSKSGTSASLAISGLRSEDEADYYCGAWDDSLSGYVFGGGTKLTVLG
notes: full IgG, human IgG1 heavy and lambda light constant regions; expressed in CHO-S; also called 항-ROR1 IgG 항체 DG6
B5: the binding result in assay [1] is “binds”; in assay [2], “binds”; in assay [3] it was “binds”; in the assay with 인간 ROR1 (세포 표면 발현), “binds”; in assay [4], “no binding”; in assay [5], “binds”.

B6: C2E3 (antibody, human IgG1, lambda, V domains shown)
VH: EVQLLESGGGLVQPGGSLRLSCAASGFTFSNYAMSWVRQAPGKGLEWVSSISHNSGSTYYADSVKGRFTISRDNSKNTLYLQMNSLRAEDTAVYYCAKFISARKSLGRSYSNGMDVWGQGTLVTVSS
VL: QSVLTQPPSASGTPGQRVTISCTGSSSNIGSNDVTWYQQLPGTAPKLLIYADSKRPSGVPDRFSGSKSGTSASLAISGLRSEDEADYYCGTWDYSLSGYVFGGGTKLTVLG
notes: full IgG, human IgG1 heavy and lambda light constant regions; expressed in CHO-S; also called 항-ROR1 IgG 항체 C2E3; ROR1 단일클론항체(C2E3)
For the molecule B6, the binding result is listed as “binds” in assay [1], “binds” in assay [2] and “no binding” in assay [4].

B7: D2B12 (antibody, human IgG1, lambda, V domains shown)
VH: EVQLLESGGGLVQPGGSLRLSCAASGFTFSNYDMSWVRQAPGKGLEWVSSISPSSGSSIYYADSVKGRFTISRDNSKNTLYLQMNSLRAEDTAVYYCAKAPGWCQAPSCYYDNAMDVWGQGTLVTVSS
VL: QSVLTQPPSASGTPGQRVTISCSGSSSNIGNNDVSWYQQLPGTAPKLLIYDDSQRPSGVPDRFSGSKSGTSASLAISGLRSEDEADYYCGAWDDSLSGYVFGGGTKLTVLG
notes: full IgG, human IgG1 heavy and lambda light constant regions; expressed in CHO-S; also called 항-ROR1 IgG 항체 D2B12
As to B7, the binding result in assay [1] is “binds”; in assay [2], “binds”; in assay [3], “binds”; in the assay with 인간 ROR1 (세포 표면 발현), “binds”; in assay [4], “no binding”; in assay [5], “binds”.

B8: A2F3 (antibody, human IgG1, lambda, V domains shown)
VH: EVQLLESGGGLVQPGGSLRLSCAASGFTFSSYDMSWVRQAPGKGLEWVSWISPGGGSKYYADSVKGRFTISRDNSKNTLYLQMNSLRAEDTAVYYCARVNGRFDYWGQGTLVTVSS
VL: QSVLTQPPSASGTPGQRVTISCSGSSSNIGNNNVSWYQQLPGTAPKLLIYADSHRPSGVPDRFSGSKSGTSASLAISGLRSEDEADYYCATWDYSLSGYVFGGGTKLTVLG
notes: full IgG, human IgG1 heavy and lambda light constant regions; expressed in CHO-S; also called 항-ROR1 IgG 항체 A2F3
In the case of B8, the binding result in assay [1] is “binds”; in assay [2], “binds”; in assay [3], “binds”; with 인간 ROR1 (세포 표면 발현), “binds”; in assay [4] it was “no binding”; in assay [5], “binds”.

B9: BA6 M1 (antibody, human IgG1, lambda, V domains shown)
VH: EVQLLESGGGLVQPGGSLRLSCAASGFTFSNYDMSWVRQAPGKGLEWVSAIYHSGSSKYYADSVKGRFTISRDNSKNTLYLQMNSLRAEDTAVYYCARGGNAAWDTGFDYWGQGTLVTVSS
VL: QSVLTQPPSASGTPGQRVTISCSGSSSNIGSNDVSWYQQLPGTAPKLLIYYDNNRPSGVPDRFSGSKSGTSASLAISGLRSEDEADYYCGAWDDSLSGYVFGGGTKLTVLG
notes: full IgG, human IgG1 heavy and lambda light constant regions; expressed in CHO-S; also called 항-ROR1 IgG 항체 BA6 M1
In the case of B9, the binding result in assay [1] is on record as “binds”; in assay [2], “binds”; in assay [3], “binds”; in the assay with 인간 ROR1 (세포 표면 발현), “binds”; in assay [4] it was “no binding”; in assay [5], “binds”.

B10: A2F2 M1 (antibody, human IgG1, lambda, V domains shown)
VH: EVQLLESGGGLVQPGGSLRLSCAASGFTFSDYYMSWVRQAPGKGLEWVSSISPDASNTYYADSVKGRFTISRDNSKNTLYLQMNSLRAEDTAVYYCAKNLRAFDYWGQGTLVTVSS
VL: QSVLTQPPPASGTPGQRVTISCSGSSSNIGSNTVYWYQQLPGTAPKLLIYANSQRPSGVPDRFSGSKSGTSASLAISGLRSEDEADYYCGSWDYSLSGYVFGGGTKLTVLG
notes: full IgG, human IgG1 heavy and lambda light constant regions; expressed in CHO-S; also called 항-ROR1 IgG 항체 A2F2 M1
B10: the binding result in assay [1] is “binds”; in assay [2], “binds”; in assay [3] it was “binds”; in the assay with 인간 ROR1 (세포 표면 발현) it was “binds”; in assay [4] it was “no binding”; in assay [5], “binds”.
